# Test results from publication PMC5389473 (Nucleic Acids Research, 2016).
# Ends that are not written are not given here. * marks the point of attachment. FITC = O=C1OC2(c3ccc(O)cc3Oc3cc(O)ccc32)c2ccc(NC(=S)*)cc21
# B1: fluorescein-labeled pol β NLS peptide SKRKAPQETLNGG-Lys(FITC) (peptide)
# peptide: SKRKAPQETLNGGK(FITC)
# Experiments:
# Test in all cases: fluorescence polarisation; fluorescein-labelled pol β NLS peptide against the concentration of the Impα construct; apparent dissociation constants; as in ref. 56
# Details in all cases: both partners purified
# [1] = target: T1, murine Importin α1 with the Importin β binding domain deleted (mImpα1ΔIBB) (mouse, UniProt P52293 70-529)
# [2] = target: T2, full-length murine Importin α1 (mImpα1) (mouse, UniProt P52293 1-529)
# [3] = target: T1, murine Importin α1 with the Importin β …; remark: listed apart in the source
# [4] = target: T2, full-length murine Importin α1 (mImpα1); remark: listed apart in the source
# [5] = target: human Importin α5, residues 66–512 (hImpα5ΔIBB) (human, UniProt P52294 66-512)
# Chain of human Importin α5, residues 66–512 (hImpα5ΔIBB) (P52294 66-512, stated change not applied): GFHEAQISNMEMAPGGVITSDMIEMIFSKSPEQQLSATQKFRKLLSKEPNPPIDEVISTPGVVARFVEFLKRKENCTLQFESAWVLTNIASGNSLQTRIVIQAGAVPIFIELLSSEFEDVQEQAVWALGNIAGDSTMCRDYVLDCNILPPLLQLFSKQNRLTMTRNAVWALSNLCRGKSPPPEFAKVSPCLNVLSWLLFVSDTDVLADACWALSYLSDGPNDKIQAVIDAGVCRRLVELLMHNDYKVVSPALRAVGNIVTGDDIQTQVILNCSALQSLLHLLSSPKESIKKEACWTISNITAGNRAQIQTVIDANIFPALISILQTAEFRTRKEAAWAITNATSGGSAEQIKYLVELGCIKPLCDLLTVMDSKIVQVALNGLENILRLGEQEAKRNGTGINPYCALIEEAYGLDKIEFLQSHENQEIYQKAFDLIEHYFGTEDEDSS
binder,measurement,setting,value
B1,Kd,[1],2 µM
same,Kd,[2],54.3 µM
same,Kd,[3],3.6 ± 0.4 µM
same,Kd,[4],61.8 ± 1.7 µM
same,Kd,[5],0.72 ± 0.03 µM
